In patent US20180282429A1 (Zymeworks, published 2018):

How the values were obtained:
recombinant human HER2 [1] = target: T1, recombinant human HER2 (human, UniProt P04626 23-652); test: SPR by the protocol of Example 12, sample after SEC, against v10013
T1 construct: extracellular domain
Description: (§1) Between 2000 and 4000 RU of anti-human Fc injected at concentration between 5 and 10 μg/ml was immobilized on a CM5 chip using standard amine coupling. […] HER2 dilutions were analyzed in duplicate. Sensograms were fit globally to a 1:1 Langmuir binding model. All experiments were conducted at 25° C.
(§2) The SPR was measured before and after SEC purification.

recombinant human HER2 [2] = target: T1, recombinant human HER2; test: SPR by the protocol of Example 12, sample before SEC, against v10013
Description: as §1, §2

- Fold wrt WT (KD(WT)/KD(mut)) (recombinant human HER2 [1]): 7 fold
- Fold wrt WT (KD(WT)/KD(mut)) (recombinant human HER2 [2]): 8.1 fold
B1: Variant 10014 (antibody, human IgG1, kappa)
heavy: EVQLVESGGGLVQPGGSLRLSCAASGFTFADYTMDWVRQAPGKGLEWVADVNPNSGGSIYNQRFKGRFTLSVDRSKNTLYLQMNSLRAEDTAVYYCARNLGPSFYFDYWGQGTLVTVSSASTKGPSVFPLAPSSKSTSGGTAALGCLVKDYFPEPVTVSWNSGALTSGVHTFPAVLQSSGLYSLSSVVTVPSSSLGTQTYICNVNHKPSNTKVDKKVEPKSCDKTHTCPPCPAPELLGGPSVFLFPPKPKDTLMISRTPEVTCVVVDVSHEDPEVKFNWYVDGVEVHNAKTKPREEQYNSTYRVVSVLTVLHQDWLNGKEYKCKVSNKALPAPIEKTISKAKGQPREPQVYVYPPSRDELTKNQVSLTCLVKGFYPSDIAVEWESNGQPENNYKTTPPVLDSDGSFALVSKLTVDKSRWQQGNVFSCSVMHEALHNHYTQKSLSLSPG
light: not shown
Fc: not shown
notes: also called v10014
